Reference: US20030207791A1, “Materials and methods relating to the treatment of leukaemias” (priority 2000, published 2003)

B1: PML-RAR: leukaemia-associated chimeric transcription factor, fusion of PML and RAR (protein)
chain: MEPAPARSPRPQQDPARPQEPTMPPPETPSEGRQPSPSPSPTERAPASEEEFQFLRCQQCQAEAKCPKLLPCLHTLCSGCLEASGMQCPICQAPWPLGADTPALDNVFFESLQRRLSVYRQIVDAQAVCTRCKESADFWCFECEQLLCAKCFEAHQWFLKHEARPLAELRNQSVREFLDGTRKTNNIFCSNPNHRTPTLTSIYCRGCSKPLCCSCALLDSSHSELKCDISAEIQQRQEELDAMTQALQEQDSAFGAVHAQMHAAVGQLGRARAETEELIRERVRQVVAHVRAQERELLEAVDARYQRDYEEMASRLGRLDAVLQRIRTGSALVQRMKCYASDQEVLDMHGFLRQALCRLRQEEPQSLQAAVRTDGFDEFKVRLQDLSSCITQGKDAAVSKKASPEAASTPRDPIDVDLPEEAERVKAQVQALGLAEAQPMAVVQSVPGAHPVPVYAFSIKGPSYGEDVSNTTTAQKRKCSQTQCPRKVIKMESEEGKEARLARSSPEQPRPSTSKAVSPPHLDGPPSPRSPVIGSEVFLPNSNHVASGAGEAIETQSSSSEEIVPSPPSPPPLPRIYKPCFVCQDKSSGYHYGVSACEGCKGFFRRSIQKNMVYTCHRDKNCIINKVTRNRCQYCRLQKCFEVGMSKESVRNDRNKKKKEVPKPECSESYTLTPEVGELIEKVRKAHQETFPALCQLGKYTTNNSSEQRVSLDIDLWDKFSELSTKCIIKTVEFAKQLPGFTTLTIADQITLLKAACLDILILRICTRYTPEQDTMTFSDGLTLNRTQMHNAGFGPLTDLVFAFANQLLPLEMDDAETGLLSAICLICGDRQDLEQPDRVDMLQEPLLEALKVYVRKRRPSRPHMFPKMLMKITDLRSISAKGAERVITLKMEIPGSMPPLIQEMLENSEGLDTLSGQPGGGGRDGGGLAPPPGSCSPSLSPSSNRSSPATHSP
B2: p53-RAR: RAR fused C-terminally to the tetramerization domain present in p53 (protein)
chain: GEYFTLQIRGRERFEMFRELNEALELKDAQAGMASNSSSCPTPGGGHLNGYPVPPYAFFFPPMLGGLSPPGALTTLQHQLPVSGYSTPSPATIETQSSSSEEIVPSPPSPPPLPRIYKPCFVCQDKSSGYHYGVSACEGCKGFFRRSIQKNMVYTCHRDKNCIINKVTRNRCQYCRLQKCFEVGMSKESVRNDRNKKKKEVPKPECSESYTLTPEVGELIEKVRKAHQETFPALCQLGKYTTNNSSEQRVSLDIDLWDKFSELSTKCIIKTVEFAKQLPGFTTLTIADQITLLKAACLDILILRICTRYTPEQDTMTFSDGLTLNRTQMHNAGFGPLTDLVFAFANQLLPLEMDDAETGLLSAICLICGDRQDLEQPDRVDMLQEPLLEALKVYVRKRRPSRPHMFPKMLMKITDLRSISAKGAERVITLKMEIPGSMPPLIQEMLENSEGLDTLSGQPGGGGRDGGGLAPPPGSCSPSLSPSSNRSSPATHSP

How the values were obtained:
[1] = test system: U937 cells expressing PML-RAR under the control of an inducible promoter; assay: Differentiation (CD14) of U937 cells with inducible PML-RAR treated with vitamin D and TGFβ; format: cell-based; settings: PML-RAR induced, control infection (GFP alone), vitamin D and TGFβ
From the text: The cells were either uninduced (ctr column), or induced to express PML-RAR (PML-RAR column). Cells were transduced with retroviral vectors encoding the coiled coil of PML (RBCC) and GFP as a marker, or with retroviral vectors encoding GFP alone as a control (control). […] In cells expressing the coiled coil of PML (gated in the cytofluorimetric analysis based on the positivity for the GFP marker), PML-RAR was unable to block efficiently differentiation (from 90% to 70%). Levels of expression of PML-RAR were unchanged by expressing the coiled coil region of PML.
RAR oligomerization through the coiled coil region of PML is required for its leukemogenic activity, and deletion of the PML coiled coil is sufficient to lead to loss of oncogenic potential (Minucci et al., 2000). Small molecule compounds able to disrupt PML-RAR oligomers would therefore be able to revert the leukemic phenotype.

[2] = test system: RARE-G5-TATA reporter (GAL4-VP16 driven transcription); assay: Transcriptional repression of GAL4-VP16 activation, RARE-G5-TATA reporter, transfected HeLa cells; format: cell-based
Procedure: FIG. 2. Role of the coiled coil of PML in the altered transcriptional properties of PML-RAR (A): Transcriptional repression by RAR and fusion proteins. Hela cells were co-transfected with the RARE-G5-TATA reporter in the absence (C) or presence of increasing amounts (50, 100, 250, 1000 ng) of the indicated expression vectors and then harvested 48 hours after transfection. Levels of expression of RAR and fusion proteins after transfection are shown in (C). (B) RARE and NCoR dependent transcriptional repression by RAR and fusion proteins. Hela cells were co-transfected with the RARE-G5-TATA or the G5-TATA, reporters and 1 μg of control expression vector (C), RAR (R), PML-RAR (P/R) and their respective AHT derivatives, as indicated. (D) RA sensitivity of RAR and fusion proteins. Cells were co-transfected with 500 ng of the indicated expression vectors. 24 hours after transfection, RA was added at the following concentrations: 1, 10, 100 nM, 1, 10 μM, and cells were harvested after additional 24 hours.
To test this hypothesis, the inventors devised an artificial, reporter system to measure transcriptional repression by RAR and chimeric proteins. The RARE-G5-TATA reporter construct has five GAL4 response elements fused to a minimal promoter region: upstream of the GAL4 sites, a RA responsive element (RARE) allows binding of RAR (or fusion proteins). […] RAR over-expression led to decrease of GAL4-VP16 activation, with 30-40% repression observed with the maximal amount of co-transfected RAR expression vector (1 μg, FIG. 2A), while it exerted no effect on the GAL4-VP16-mediated activation of a cognate promoter lacking the RARE (FIG. 2B). A RAR construct carrying the AHT mutation, which abrogates NCoR binding (Horlein et al., 1995), was unable to prevent activation of the RARE-G5-TATA promoter by GAL4-VP16 (FIG. 2B).
Next, the inventors tested the transcriptional regulatory functions of PML-RAR (or derivatives). […] At the maximal concentration tested (1 μg), the inventors observed 80-90% repression with PML-RAR and 30-40% with RAR (FIG. 2A).
Transient transfection of HeLa, NIH 3T3, SAOS and C33A cells was performed by calcium phosphate as described (Lillie and Green, 1989; Minucci et al., 1994). p53-/- MEFs were transiently transfected by lipofection as described (Pearson et al., 2000). Light units were normalized to expression of a co-transfected β-galactosidase expression plasmid. Results are presented as the mean+standard deviations of at least three independent experiments.

Row | Molecule | differentiated, CD14+ cells [1] | repression of GAL4-VP16 activation ([2]; maximal amount of expression vector, 1 μg) | capacity to repress GAL4-VP16 driven transcription [2]
1 | B1 | about 30% | 80-90% | 
2 | B2 |  |  | as strongly as PML-RAR
